Test results taken from article PMC3098852.

What was measured:
[1] = target: HIV-1 NefSF2 wild type, full length (1-210), C210A (HIV-1 SF2) (UniProt P03407); assay: ITC
[2] = target: HIV-1 NefSF2 mutant (P76A, P79A, R81A), C210A (HIV-1 SF2) (UniProt P03407); assay: ITC; Nef (40 to 50 µM) in the cell, inhibitor protein (400 to 500 µM) in the syringe; 10 mM Tris/HCl pH 8.0, 100 mM NaCl; 25 °C
[3] = target: HIV-1 NefSF2 wild type, full length (1-210), C210A (HIV-1 SF2) (UniProt P03407); assay: ITC; Nef (40 to 50 µM) in the cell, GST-fused inhibitor protein (400 to 500 µM) in the syringe; 10 mM Tris/HCl pH 8.0, 100 mM NaCl; 15 °C
[4] = target: HIV-1 NefSF2 (Δ1-27), C210A (HIV-1 SF2) (UniProt P03407); assay: ITC
[5] = target: HIV-1 NefSF2 (Δ1-44), C210A (HIV-1 SF2) (UniProt P03407); assay: ITC
[6] = target: HIV-1 NefSF2 (Δ1-58), C210A (HIV-1 SF2) (UniProt P03407); assay: ITC
[7] = target: GST-NI3-9, Hck-SH3 (VSWSPD) - polyGly linker - CD4 cytoplasmic tail (human) (UniProt P08631); assay: SPR; GST-NI3-9 held on a CM5 chip via an anti-GST antibody; hexa-histidine tagged Nef 400-1000 nM flowed at 5 µl/min; 10 mM HEPES pH 8.0, 150 mM NaCl, 0.005% IGEPAL; 25 °C
[8] = target: fluorescence-labelled NI3-3 (human) (UniProt P01730); assay: other fluorescence titration

Substance	Kd [1]	dH [1]	stoichiometry N [1]	also measured
GST-NI3-1, CD4 cytoplasmic tail (37 residues) - five residue linker - Hck-SH3 (VSWSPD) (from UniProt P01730 419-458; P08631-1 78-138) (designed binder)	84 nM	-8.51 kcal/mol	1.09	
GST-NI3-3, CD4 cytoplasmic tail (CQC to SQS) fused to Hck-SH3 (VSWSPD) (from UniProt P01730 419-458; P08631-1 78-138) (designed binder)	88 nM	-8.64 kcal/mol	1.12	
GST-NI3-4, CD4 cytoplasmic tail (dileucine LL to AA) fused to Hck-SH3 (VSWSPD) (from UniProt P01730 419-458; P08631-1 78-138) (designed binder)	544 nM	-8.55 kcal/mol	0.97	
GST-NI3-5, wild type CD4 sequence attached with a glycine-serine-rich linker of 12 residues to Hck-SH3 (VSWSPD) (from UniProt P01730 419-458; P08631-1 78-138) (designed binder)	64 nM	-8.22 kcal/mol	1.06	
GST-NI3-8, CD4 cytoplasmic tail shortened to 23 residues fused N-terminally to Hck-SH3 (VSWSPD) (from UniProt P01730 419-458; P08631-1 78-138) (designed binder)	107 nM	-8.2 kcal/mol	0.93	
GST-NI3-9, Hck-SH3 (VSWSPD) - polyGly linker - CD4 cytoplasmic tail (from UniProt P08631-1;P01730) (designed binder)				Kd [2]: 1170 nM; dH [2]: -4.1 kcal/mol; stoichiometry N [2]: 0.85; Kd [3]: 26 nM; dH [3]: -11.4 kcal/mol; stoichiometry N [3]: 0.97
GST-NI3-10, Hck-SH3 (VSWSPD) - linker - CD4 cytoplasmic tail with the two cysteines mutated (from UniProt P08631-1 78-138; P01730 419-458) (designed binder)	27 nM	-11.5 kcal/mol	1.03	
GST-NI3-13, Hck-SH3 (VSWSPD) - linker - CD4 cytoplasmic tail truncated before the cysteines (from UniProt P08631-1 79-138; P01730 419-458) (designed binder)	41 nM	-7.04 kcal/mol	0.98	Kd [4]: 51 nM; dH [4]: -12.2 kcal/mol; stoichiometry N [4]: 1; Kd [5]: 96 nM; dH [5]: -16.1 kcal/mol; stoichiometry N [5]: 1.06; Kd [6]: 149 nM; dH [6]: -13.8 kcal/mol; stoichiometry N [6]: 0.98
HIV-1 NefSF2 (Δ1-44), C210A (from UniProt P03407 45-210) (domain or fragment)				Kd [7]: 28 nM
HIV-1 NefSF2 wild type, full length (1-210), C210A (from UniProt P03407) (natural protein)				Kd [8]: 37 nM
